Test in all cases: surface plasmon resonance, 25 °C
For orientation: In SPR one partner is held on a chip, and binding of the other changes the refractive index at the surface.

For experiment [1], the target named is T1, human IL-6 (human, UniProt P05231 30-212).
T1 construct: also called huIL-6; hIL-6

In experiment [2] the target is T2, rat IL-6 (rat, UniProt P20607 25-211).
T2 construct: also called IL-6 from rat
T2 sequence (looked up): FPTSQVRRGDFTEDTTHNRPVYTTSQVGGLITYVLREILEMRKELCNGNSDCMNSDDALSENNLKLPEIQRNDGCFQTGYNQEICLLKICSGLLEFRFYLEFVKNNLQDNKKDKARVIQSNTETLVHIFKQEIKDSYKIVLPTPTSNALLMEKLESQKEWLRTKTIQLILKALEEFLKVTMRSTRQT

Experiment [3] addresses T3, cynomolgus monkey IL-6 (cynomolgus monkey, UniProt P79341 28-212, limits assumed).
T3 construct: also called IL-6 of cynomolgus monkey
T3 sequence (looked up): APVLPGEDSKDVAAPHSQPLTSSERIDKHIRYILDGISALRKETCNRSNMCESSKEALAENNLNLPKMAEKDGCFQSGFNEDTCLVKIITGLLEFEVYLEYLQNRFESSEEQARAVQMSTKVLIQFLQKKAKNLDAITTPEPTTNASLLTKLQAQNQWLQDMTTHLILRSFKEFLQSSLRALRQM

Experiment [4] concerns the target T4, mouse IL-6 (mouse, UniProt P08505 25-211).
T4 construct: also called IL-6 from mouse
T4 sequence (looked up): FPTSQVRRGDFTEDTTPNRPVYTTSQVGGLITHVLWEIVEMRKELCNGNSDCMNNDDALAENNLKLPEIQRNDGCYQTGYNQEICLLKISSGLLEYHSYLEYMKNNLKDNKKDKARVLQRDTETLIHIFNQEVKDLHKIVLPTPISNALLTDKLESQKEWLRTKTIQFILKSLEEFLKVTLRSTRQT

Among the data in patent publication EP3338799A1 (AlderBio Holdings LLC, dated 2018) are Kd values, retold here.

B1: antibody Ab1 (antibody, human IgG1, kappa, N297A, V domains shown)
VH: EVQLVESGGGLVQPGGSLRLSCAASGFSLSNYYVTWVRQAPGKGLEWVGIIYGSDETAYATSAIGRFTISRDNSKNTLYLQMNSLRAEDTAVYYCARDDSSDWDAKFNLWGQGTLVTVSS
VL: AIQMTQSPSSLSASVGDRVTITCQASQSINNELSWYQQKPGKAPKLLIYRASTLASGVPSRFSGSGSGTDFTLTISSLQPDDFATYYCQQGYSLRNIDNAFGGGTKVEIKR
notes: It is a humanized (from rabbit), full length, aglycosylated antibody with human kappa and IgG gamma-1 constant regions, produced in Pichia pastoris; also called Ab1 monoclonal antibody; anti-IL-6 antibody Ab1
As to B1, the Kd (as a rule, the concentration at which binding is half-saturated) in experiment [1] turned out to be 0.004 nM; in experiment [2], 1.4 nM; in experiment [3], 0.031 nM; in experiment [4], 0.4 nM.
